Assay results published in article PMC3129213.
pKd, pKi: −log10 of the molar value.

Assays:
[1] = molecular target: Lactoferrin from human neutrophils (human); experiment: SPR
CRD from SRCL = CRD from SRCL (UniProt Q5KU26); experiment: radioligand binding
Chain of UniProt Q5KU26 (Q5KU26 whole entry): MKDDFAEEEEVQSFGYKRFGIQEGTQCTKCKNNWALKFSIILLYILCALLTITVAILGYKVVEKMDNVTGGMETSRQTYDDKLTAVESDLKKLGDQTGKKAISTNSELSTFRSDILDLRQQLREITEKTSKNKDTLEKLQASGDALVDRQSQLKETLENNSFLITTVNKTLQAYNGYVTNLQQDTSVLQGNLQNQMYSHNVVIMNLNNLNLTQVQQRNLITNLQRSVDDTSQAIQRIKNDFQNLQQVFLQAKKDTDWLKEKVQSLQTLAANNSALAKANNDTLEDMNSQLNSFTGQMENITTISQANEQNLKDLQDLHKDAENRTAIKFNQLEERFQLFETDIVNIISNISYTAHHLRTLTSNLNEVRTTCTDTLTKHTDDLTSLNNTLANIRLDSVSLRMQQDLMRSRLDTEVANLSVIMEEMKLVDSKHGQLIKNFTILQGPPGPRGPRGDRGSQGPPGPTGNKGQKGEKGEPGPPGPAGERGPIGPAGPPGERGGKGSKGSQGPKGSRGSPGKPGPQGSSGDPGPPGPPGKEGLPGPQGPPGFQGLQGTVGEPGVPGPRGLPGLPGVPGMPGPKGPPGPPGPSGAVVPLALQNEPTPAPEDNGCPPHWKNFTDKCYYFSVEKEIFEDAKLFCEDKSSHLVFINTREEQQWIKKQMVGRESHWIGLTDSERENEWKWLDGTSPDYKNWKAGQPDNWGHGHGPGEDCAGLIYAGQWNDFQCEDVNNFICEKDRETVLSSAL

| Substance | pKd [1] | pKi (CRD from SRCL) |
| --- | --- | --- |
| CRD from SRCL (from UniProt Q5KU26 1-742) (domain or fragment) | 5.33 | – |
| Lactoferrin from human neutrophils (natural protein) | – | 5.21 |
